The subject of series [1] is MKC mice. Kind of series: Oral tolerance protocol followed by ERT, overall outcome. It counts as in vivo, mouse. Conditions: oral administration prior to ERT. The source says: (§1) Control groups (7 and 8) received PBS alone.
For series [2], the system named is splenocytes. Kind of series: Cytokine production by splenocytes after in vitro stimulation (Example 3). The format is cell-based, mouse. The following applies: splenocytes of MKC mice treated by ERT with GALNS; culture supernatant. As for the experimental part:
Mice (MKC) genetically engineered not to express GALNS were used in these examples. […] 200 μl of the emulsion were administered as a subcutaneous injection. […] Control mice (n=2) were immunized with PBS emulsified in CFA and IFA respectively (Chung et al. (2005) J. Leukoc Biol. 77(6):906-13)). […] A control group (n=5) received PBS (Tomatsu et al. (2008) Hum Mol Genet. 15; 17(6):815-24). […]
The production of cytokines after peptide stimulation was evaluated as intracellular staining (by flow cytometry) and secreted cytokines (by LUMINEX). […] The cells were treated with 1 μl of a protein transport inhibitor BD GolgiPlug™ during 5 h at 37° C., saturated humidity and 5% CO2. The suspension of cells was centrifuged at 1000 rpm during 10 minutes. The supernatants were collected by further analysis with LUMINEX. The Fc receptors were blocked with 1 μl of α-mouse CD16/32 (e-Bioscience) during 15 min at 4° C. After washing, the cells were stained with PE-Cy7-labeled anti-mouse CD4 and Alexa700-labeled anti-mouse CD8 antibodies during 30 min at 4° C. After two washes, cells were permeabilized with a BD fixation/permeabilization solution during 20 min at 4° C. Cells were washed two times and stained with a cocktail of antibodies for intracellular staining (PE-labeled anti-mouse IL-4, APC-labeled anti-mouse IL-5 and FITC-labeled anti-mouse IFN-γ). After two washes, cells were analyzed by flow cytometry. Secreted cytokines (IL-4, IL-5, IL-13, IL-17 and IFN-γ) in the collected supernatants were detected by using a bead immunoassay kit which allows the measurement of multiple proteins simultaneously (LUMINEX technology, using a Millipore Milliplex™ kit).

Series [3] relates to MKC mice. Kind of series: Oral tolerance induction: GALNS specific IgG plasma levels by ELISA (Example 19). The format is in vivo, mouse. As for the experimental part: as §1
An indirect ELISA technique was used to detect plasma IgG and IgE antibodies against GALNS in treated and untreated mice. […] The plates were blocked with 3% Casein in PBS for 1 h at room temperature in a wet chamber. After two washes, first with TTBS (10 mMTris, 150 mM NaCl, 0.05% Tween20, pH 7.5), and then with TBS (10 mM Tris, 150 mM NaCl, 0.05%, pH 7.5), […] of mice plasma samples diluted 1:500, for IgE and 1:1,000 for IgG, in TTBS were added to the plate and incubated 2 h at 37° C. in a wet chamber. Four washes with TTBS were performed. 100 μl of anti-mouse IgE-HRP (Thermo Scientific) 1:1,000 in TTBS or IgG-Peroxidase (Sigma) 1:5,000 dilution in TTBS were applied. After three washes with TTBS, followed by one wash with TBS, the experiment was developed with the substrate TMB (3,3′,5,5′Tetramethylbenzidine). The enzymatic reaction was stopped with IN HCl solution and the absorbance was measured at 450 nm in a Multiskan® EL800 (Bio-Tek Instruments). Plasma concentrations of IgG antibodies anti-GALNS were derived by extrapolation of the absorbance values from a calibration curve using a mAb anti-GALNS.
Background: In an ELISA, binding on a coated surface is turned into a signal by an enzyme label.

Series [4] deals with Morquio A mice and WT mice. Kind of series: Plasma IgG anti-GALNS by indirect ELISA in mice treated by ERT (Example 8). It counts as in vivo, mouse. Conditions: 16 i.v. infusions of GALNS. The method, then: Morquio A mouse models: a). […] 14(22): p. 3321-35).c). Missense mutation mice (Galnstm (C76S) SLU C2) (Tomatsu et al. (2007) Mol Genet Metab., 91(3): p. 251-8), and wild-type C57BL6 mice were treated by ERT. […] A control group received PBS.
An indirect ELISA technique was used to detect plasma IgG antibodies against GALNS in treated and untreated mice. […] The plates were blocked with 3% casein in PBS during 1 h at room temperature in a wet chamber. After two washes, first with TTBS (10 mM Tris, 150 mM NaCl, 0.05% Tween 20, pH 7.5), and then with TBS (10 mM Tris, 150 mM NaCl, 0.05%, pH 7.5), […] of mice plasma samples diluted (1:1,000) in TTBS were added to the plate and incubated 2 h at 37° C. in a wet chamber. Four washes with TTBS were performed. 100 μl of anti-mouse IgG-Peroxidase (Sigma) 1:5,000 dilution in TTBS were applied. After three washes with TTBS, followed by one wash with TBS, the experiment was developed with the substrate TMB (3,3′,5,5′-Tetramethylbenzidine, Sigma). The enzymatic reaction was stopped with IN HCl solution and the absorbance was measured at 450 nm in a microplate reader Multiskan® EL800 (Bio-Tek Instruments). Plasma concentrations of IgG antibodies anti-GALNS were derived by extrapolation of the absorbance values from a calibration curve using a mAb anti-GALNS.

[5] abbreviates: oral 50 μg, one week after the last infusion.

Regarding “QQHQEALVPAQPQLNVTNWA (listed as Homo sapiens) [Peptide I10]”, the “inducing oral tolerance to GALNS” value in series [1] is listed as “effective”. Further, the “secretion of cytokines IL-5 and IFN-γ” value in series [2] is reported as “strong response”. Also, the figures for the “reduction in GALNS specific IgG plasma levels vs non-tolerized mice, p or words” value in series [3] (setting [5]), in series [3] (oral 100 μg) and in series [3] (oral 500 μg) were 0.0086, “same levels or in some cases higher levels” and “same levels or in some cases higher levels”, respectively.

B1: N-acetylgalactosamine-6-sulfatase (protein, listed as Homo sapiens)
chain: APQPPNILLLLMDDMGWGDLGVYGEPSRETPNLDRMAAEGLLFPNFYSANPLCSPSRAALLTGRLPIRNGFYTTNAHARNAYTPQEIVGGIPDSEQLLPELLKKAGYVSKIVGKWHLGHRPQFHPLKHGFDEWFGSPNCHFGPYDNKARPNIPVYRDWEMVGRYYEEFPINLKTGEANLTQIYLQEALDFIKRQARHHPFFLYWAVDATHAPVYASKPFLGTSQRGRYGDAVREIDDSIGKILELLQDLHVADNTFVFFTSDNGAALISAPEQGGSNGPFLCGKQTTFEGGMREPALAWWPGHVTAGQVSHQLGSIMDLFTTSLALAGLTPPSDRAIDGLNLLPTLLQGRLMDRPIFYYRGDTLMAATLGQHKAHFWTWTNSWENFRQGIDFCPGQNVSGVTTHNLEDHTKLPLIFHLGRDPGERFPLSFASAEYQEALSRITSVVQQHQEALVPAQPQLNVCNWAVMNWAPPGCEKLGKCLTPPESIPKKCLWSH
notes: recombinant human GALNS produced in CHO cells, used for ERT and oral tolerance
For B1, the “inducing oral tolerance to GALNS” value in series [1] is reported as “effective”. Also, the “reduction in GALNS specific IgG plasma levels vs non-tolerized mice, p or words” value in series [3] (setting [5]) was “same levels or in some cases higher levels”; in series [3] (oral 100 μg), 0.033. Also, the “humoral response, IgG anti-GALNS in plasma” value in series [4] (C2 mice) is “heterogeneous humoral response”; in series [4] (MKC mice), “stronger and more homogeneous response”; in series [4] (MTol mice) it was “lowest levels of response”; in series [4] (WT mice), “heterogeneous humoral response”.

For the origin of these results see patent US11529397B2, “Method of treating mucopolysaccharidosis type IVA” (Saint Louis University, priority 2018, dated 2022).
